Results on 18 sequences are retold here after the DeepSol protein solubility set.

The data set is described as follows: soluble on expression in E. coli; label from the status in PepcDB or PDB records.
As for “MVLQIMLLTKPVPLYPPYIDLCDFDFDDYPQLDKIFSSNEPWWLEQFNWGKIFLTYIGRNKSAHTYERFRNDVERFLLWSFIVKKKPIDQLRKSDLLEYADFCWQPPVDWIGTSNQERFKITNGYSAANELWFPYKIQAPKSLKSQFVIDKKKYRPSQQTLSSMFTAIIVFYNYLMAEDFCIGNPAQIAKKDCRHFIIDSQVKEIKRLTGSQWQFVLDTAVEMADENAMFERNLFVIASLKTLFLRISELSERPNWSPTMGHFWQDDDENWWLKIFGKSRKLRDITVPIDFLPFLERYRASRGLLGLPSSNENSILVEKVRGQGGMTSRHLRRLVQSVFDQAHENMRRSEGENKALKLKEASAHWLRHTGASMEIERGRPLKDISEDLGHASMATTDTVYVQSENKKRAESGKRRKVD”, the “soluble on expression in E. coli” value is reported as “not soluble”. As to “MVLTEDFGYPLSRIKLEYEVTFGREKKRADIVIFDKQQTDSPYIIIEVKKPKLKDGKEQLKSYCNATGAPIGVWSNGKSISYYHRKDPNYFEDISNIPRADQKLSDILSERWTIADLIEKDKLISERKSLKDLILEMEDEVLAGAGVDVFEEVFKLIFTKLFDEMESGRNNERNLEFRNYGDTETELKERIQNLFDKARDKWEGVFSPDAKIQLTPSHLSVCVASLQDVKLFNSNLDVVDEAFEYLINKSSKGEKGQYFTPRYVIDMCVKMLNPTANEKMIDTASGSCGFPVHTIFHVWENILKEKGLERSHLFTLEQKPAECTDYVNDNVFAIDFDEKAVRVARTLNLIAGDGQTNVLHLNTLDYERWEQNLDSEDWQDTYFEGWKKLKKLRTRKDSYRDFTFDIVMANPPFAGEVKESRILAKYDMSRSMSLEKVKIAPKGATIVEGEPTFSEALANTGETIYQMSDGTYRKTKLKQAGNMSRDILFVERNLDFLKPGGRMAIVLPQGRFNNSSDKALREYIADRCRILAVVGLHGNVFKPHTGTKTSVLFVQKWDEELCPRVEDYNIFFATMQEPSKDNSGDKIYRSTTNEEGENVPLLDTHGHLIVKHDLFNHDGLTEDGIAEAFAEFAKKERLSFFADAPLTK”, the “soluble on expression in E. coli” value is “not soluble”. Take “MVMEVDEPAVAATTSQNQPQEHANDFDMDTSEGPIENDETFEPVDQINWKFNQVKGNIDADVHTEADVISCVEFSHDGEYLATGDKGGRVVIFQRDQSGKYVKGVRSREYNVYSTFQSHEPEFDYLKSLEIDEKINQIRWLKKKNAANFILSTNDKTIKLWKISERERKIGDDAWNLPRTNRINTSSFRGRLQIPSIVPMELIVEASPRRVYGNAHTYHVNSISVNSDQETFLSADDLRVNLWNLEITNESFNIVDIKPANMEELTEVITAAEFHPTQCNWFVYSSSKGSIRLCDMRDRALCDAYAKIFEEPEDPQSRSFFSEIIASVSDVKFSHNGRYLLTRDYLTVKVWDLNMESQPVETYPVHNYLRTKLCALYENDSIFDKFECDWSGDDKHILTGSYHNLFRSYARGNNQDAKTWEARPQEPHSQLRSRFVVPSAKRKRNNLSSSGETTEEDLSSDQLQFDRKILHTAWHPKDNIIALAATNNLYIFSDV”: the “soluble on expression in E. coli” value is listed as “not soluble”.

“MVMKLIKRSLLLLGAVLLITLPAYSQNDDIFEDDIYTSRKEIRKQNQVKDWQNQEDGYGDDTEYTVASDRDIDAYNRRDGQSYDGKKLSKDKKRDSTRSSVPGRYSRRLARFYKPNTIVISGADNVYVTDDGEYFVYGDEYYDDASSVNIYINSPWCDPFPYTSWYPSFSGWYNYTWNYPWFYYGSHIGWGGYYPGYNWYWSYYYDPFYNPYGIGMGWGYPYGWGSYYGWGGYPGVIHHYHHYPKKTYSNGQHSGAYYSYGRPNRIKGGTSGAKLGTGRYDRIQNSSSQKNKFGLQSNKPNNNLQNVKSGRTGRANRDRNIETVTPNNGQKQNRPVFQQNQSGNDRPTGRNIRSERQGENNDRTFSTPSRSNSNGGFSTPSRSSSGSMSGGGGRSGRGRN”: the “soluble on expression in E. coli” value was “not soluble”.

“MVNRFREKLKPDQYLCRIEGTQFVLVSLENDVSNITQIADELRNVVSKPIMIDDNPFPLTLSIGISYDVGKNRDYLLSTAHNAMDYIRKNGGNGWQFFSPAMNEMVKERLVLGAALKEAISNNQLKLVYQPQIFAETGELYGIEALARWHDPQHGHVPPSRFIPLAEEIGEIENIGRWVIAEACRQLAEWRSQNIHIPALSVNLSALHFRSNQLPNQVSDAMQAWGIDGHQLTVEITESMMMEHDTEIFKRIQILRDMGVGLSVDDFGTGFSGLSRLVSLPVTEIKIDKSFVDRCLTEKRILALLEAITSIGQSLNLTVVAEGVETKEQFEMLRKIHCRVIQGYFFSRPLPAEEIPGWMSSVLPLKI”: the “soluble on expression in E. coli” value is recorded as “not soluble”.

As for “MVPAPEAIRQALQERLLARLDHPDPLYRDLLQDYPRRGGKMLRGLLTVYSALAHGAPLEAGLEAATALELFQNWVLVHDDIEDGSEERRGRPALHRLHPMPLALNAGDAMHAEMWGLLAEGLARGLFPPEVLLEFHEVVRRTAYGQHLDLLWTLGGTFDLRPEDYFRMVAHKAAYYTAVAPLRLGALLAGKTPPAAYEEGGLRLGTAFQIVDDVLNLEGGEAYGKERAGDLYEGKRTLILLRFLEEAPPEERARALALLALPREAKPEAEVGWLLERLLASRALAWAKAEAKRLQAEGLALLEAAFQDLPGKEALDHLRGLLAALVERRA”, the “soluble on expression in E. coli” value was “soluble”. As to “MVPSNAESQSVVVIGAGIGGLTTAALLAQQGYRVKVYEQAAIVGGCASTFRRRGFIFDVGATQVAGLEPGGIHHRIFRQLQVDLPEATLCDPACAVFLPGEKQPINVWHDPERWQREREQQFPGSGRFWQLLQTLFQISWRFQGRDPVLPPRSMWDLGQLLGALRPDTLLTAPFVPLTVGDTLRLLGLGSDQRLKTFLDLQLKLYSQVGADETALLYAATALSVSQGPQGLWHLQGSMQTLGDRLVEALKNHGGELFCSQRVEQIHCGQGYVEGVTVRDVRSGEVRQEKAQQVVANLTVQNLLQALDQPLPGYQKRVTNLPSGSGAFVIYLGVKEDAIPPDCAPHLQFLYDHQGPIGENNSLFVSVSKPGDGRAPRGCRTVIASSFTDVAPWWNASREQYQALKESYTTTAISRLGEYFNLDESTIVHQESATPRTFDRYTARDQGIVGGVGQRLTTFGPFGFAPRTPIRNLWLVGDSVHPGEGTAGVSYSALTIARQICASGATNSLEHHHHHH”, the “soluble on expression in E. coli” value is “not soluble”. As for “MVRFRREGVRLDQAVAEALSVSRAKAQAWIQAGRVRVGDRVVLKPAYRLKGEEVAVEPVEEAPMVLPEDLPIPILYEDEDVLALNKPPGLLTHPAPGVYSGTVVNLLLARYYGPVEKGPPELVRPGIVHRLDKDTSGVLVVAKHGGDLEGLARAFRDRLVMKRYLAITEGHPREGVLIAPIGRHPRERHKMHVGGLAARYAETEFQVLATAGPYALVEARPHTGRTHQIRVHLKYLGAPILGDELYGRKSPHIGRQALHAYELRIPHPRTGRILELLAPVPQDMAAAWEALGGRWPEEVVREGYAGAQ”, the entry is “soluble”. As for “MVRVAVIGGSGVYDFPAENKRELTVETPYGKVNLTIGHVAGEEVAFLARHGKGHSVPPHKVNYRANIWALHELGVERIVATSAVGSLNPNMRPGDFVILDQLIDFTVSRPRTFYDGEESPHDRKFVAHVDFTEPYCPEIRRALITAAKDLSLPYHPKGTYVCTEGPRFETAAEIRAYRILGGDVVGMTQCPEAALARELEMCYATVAIVTNYAAGISGKKLTHAEVVELMNKKTREITALITKAIPLIPKERNCPCKDALKGATG”, the entry is “soluble”; as for “MVRVGMRAAPRVSLEALKAALGGLKLSEAKVYLITDWQDKRDQARYALLLHTGKKDLLVPDAFGPAFPGGEEALSELVGLLLAQGARRFYEAVVSPGEMTALLDLPPEELLKRVMAIANPTDPGIYLKRAA”, “soluble”.

In the case of “MVSAPPTLQDQAFRSLVRNEVLTVSDAECLIREFFPPLFKEASTQKKPKTIMILVEHWPYPCLHVGLLIDKPNFQIFQAILDGVDTWLKRKYRPRMGRLKKVDFRDAQHHASLDMQDEREGRDYLVGTLPKKQIVEDHSRTRKERLKLFHDLSFMSSLHEDKHQTLLLEWAKERTSFLHLCCEKLEIGAVEVSKVRNVLKFLQPELIKELKLNTVGNLSKLAKFVPFIRKMRNLQKLMLVRTFGTRTFTQEEKQNISKIISLFCKLSCLRHLTIDDVYFLTDQMKELLRCLEAPLVSLKITLCQLSQSDLESFAQRWNYSQLKHLCLRGVTLTNLDVTPLRDFLKRVAANLQTLDLEDCRMDDSHFRTLLPALIKCTQLTSINLYDNDISEDVLENFLHRTTNLSQLTTEMYPAPSEVYNESNYVIVEIFIQICSELMNKLMEVRQANSVCFGSSSCYDCDNRYLYEDDGDVTLCLCQE”, the “soluble on expression in E. coli” value was “not soluble”. As for “MVSARLIFVPLHARPSGISSATTGYVPWRSFIYRNGGGRPVQSSRPWLNMQQTLRITEIFYSLQGETRTAGLPTVFVRLTGCPLRCHYCDTAYAFSGGDVVSLDAIFERVAAYKPRYICVTGGEPLAQPNCISLLERLCDAGYEVSLETSGALDVSRVDPRVSKVLDLKTPGSGEVGRNRYENIPLLTDNDQVKFVVCSREDYDWAVSKLIEYRLDQRAGEVLFSPSHHQVSARELADWIVADNLPVRLQLQLHKILWNDEPGH”, the entry is “soluble”; as for “MVSDIVLEVQSLHVYYGAIHAIKGIDLKVPRGQIVTLIGANGAGKTTTLSAIAGLVRAQKGKIIFNGQDITNKPAHVINRMGIALVPEGRRIFPELTVYENLMMGAYNRKDKEGIKRDLEWIFSLFPRLKERLKQLGGTLSGGEQQMLAIGRALMSRPKLLMMDEPSLGLAPILVSEVFEVIQKINQEGTTILLVEQNALGALKVAHYGYVLETGQIVLEGKASELLDNEMVRKAYLGVA”, “soluble”; as for “MVSFKRYELPPLPYNYNALEPYIIEEIMKLHHQKHHNTYVKGANAALEKIEKHLKGEIQIDVRAVMRDFSFNYAGHIMHTIFWPNMAPPGKGGGTPGGRVADLIEKQFGGFEKFKALFSAAAKTVEGVGWGVLAFDPLTEELRILQVEKHNVLMTAGLVPILVIDVWEHAYYLQYKNDRGSYVENWWNVVNWDDVEKRLEQALNNAKPLYLLPQ”, “soluble”.

Consider “MVSFVNCRSQIKTNMQEQNNPLLCNPESGFCEMPSIKPDTAHQADLKSDKKPVKVIYYTDPICSSCWGIEPQLRKLKLEYGTSIDIEYRMGGLLPDWSYNSGGISKPSDVAHHWDEVSVYYDMPIDGGVWLEDPLPSSYPPSIAFKAVQIQSTERAILFLREIREMVFLQKKNIAKWEHLEQAAKNTGVNIEQFKKDYEGRAKDLFYADLKLARDLGVHGFPTMIFSDSTGKNETVYGYKPYAVFENTIAGLYPSVQKYTYDKSIAAVFSTFHSLTAKEFSELTGVARNQSEQMLDEYVKQGMLQKWTTKNGSLWSLKK”, for which the “soluble on expression in E. coli” value was “not soluble”. As for “MVSIELRDIIKRFGEFELKVSLSVKDGELLTLLGPSGCGKTTTLRIIAGLEKPDKGRVYFDGRDITDLPPYERNIGLVFQDYALFPHMTVFKNVAFGLEVRRVPRMEIEKRVREVLDLVGLRGFENRLPEELSGGQQQRVALARALVIEPDVLLLDEPLSNLDAKVREKLRGEIKRIVKELGITTIYVTHDQEEAMVLSDRIAVMNFGRIEQVGEPYDLYYNPKNEFVANFLGISNIVELEAKEGRACLGDLCFEVGREGKGKIFFRPENVAVGEGIEAEVIGYELLPGRVRLRLSIEGREIIAEELLSRIGKKIPKKVRIRVREFKILP”, the entry is “soluble”. As for “MVSKIIKLGVPTATLAVGTLLLGDDEKRSAFFRTASAFTQNHGHKTFDEHFPRGEWDKNWDFRDPISLVDKGKWEKADEEGKKKLIEEKKATATRNIFLIRHGQYHLDHEVKMLTPLGREQAELLGKRLANSDIKFTNMTMSTMVRATETANIILKHLPDDLTRTSSPFIEEGPPYPPVPDHKTWRPLDPEFYTEAARIESAYRKIFHRASPSQKEDSFELIVCHANVIRYFICRALQFPPEGWLRMSLGNCSLTWITIRPKGHVSVRSIGDIGHLPPNKISFT”, the entry is “not soluble”. In the case of “MVSYKARISLSGTEHRVVDRVCNEIKEIASRTGVEIHGPMPLPTKRLVVPVRKSPDGEGTNTWDHWEMRIHKRLIDVDADERTLRQLMRIPIPDGVQIEIQIKS”, the “soluble on expression in E. coli” value is listed as “soluble”.
